Measured values taken from patent US20110065592A1.

Biological target: RNA Pol II (UniProt P24928)
Experiment: cell-based or functional assay

## anti RNA Pol II antibody (Santa Cruz sc-899)
  cT of real-time PCR for GAPDH gDNA released from wells coated with the RNA Pol II antibody, compared with wells coated with the unspecific anti IgG antibody: < 5 cT
  delta between the cT's obtained using the specific RNA Pol II antibody and the unspecific anti-mouse IgG antibody (all three washing procedures): > 0 cT
  delta between the cT's obtained using the specific RNA Pol II antibody and the unspecific anti-mouse IgG antibody (washing with LS buffer and TE): 3.3 cT
